From the supplement of paper PMC6379048
pEC50: −log10 of the molar value.

Columns and labels:
Assay in all cases: EC50 of free RNA motif oligo competing protein binding to immobilised probe
P4HA1 = P4HA1 (UniProt P13674)
Outline: (§1)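 HEK293-FT lysate (2.5 mg protein/well) was pre-incubated 1 h at 4°C with free RNA oligos (0 nM to 30 μM), then 30 min at 4°C with the same 5′-amino-C6 oligos coupled to NHS-Sepharose beads. Bound proteins were quantified by label-free LC-MS/MS in three biological replicates and two independent experiments, and normalised to the water control. EC50 came from a four-parameter log-logistic fit; Kd is EC50 times a protein-dependent depletion factor.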

MKRN2 = target: T1, MKRN2 (UniProt Q9H000)
T1 sequence: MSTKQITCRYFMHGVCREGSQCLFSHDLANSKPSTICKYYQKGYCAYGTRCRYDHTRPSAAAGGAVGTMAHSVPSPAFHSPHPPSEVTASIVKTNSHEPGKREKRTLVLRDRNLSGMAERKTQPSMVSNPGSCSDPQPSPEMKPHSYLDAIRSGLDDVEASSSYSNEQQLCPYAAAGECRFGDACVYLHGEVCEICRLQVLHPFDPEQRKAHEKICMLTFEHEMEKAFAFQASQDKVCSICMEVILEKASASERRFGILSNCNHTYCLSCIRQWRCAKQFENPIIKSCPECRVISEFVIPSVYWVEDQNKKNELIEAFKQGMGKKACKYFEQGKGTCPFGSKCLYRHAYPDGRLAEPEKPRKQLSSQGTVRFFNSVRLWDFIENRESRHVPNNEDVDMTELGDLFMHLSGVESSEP
Outline: as §1

AASS = target: T2, AASS (UniProt Q9UDR5)
T2 sequence: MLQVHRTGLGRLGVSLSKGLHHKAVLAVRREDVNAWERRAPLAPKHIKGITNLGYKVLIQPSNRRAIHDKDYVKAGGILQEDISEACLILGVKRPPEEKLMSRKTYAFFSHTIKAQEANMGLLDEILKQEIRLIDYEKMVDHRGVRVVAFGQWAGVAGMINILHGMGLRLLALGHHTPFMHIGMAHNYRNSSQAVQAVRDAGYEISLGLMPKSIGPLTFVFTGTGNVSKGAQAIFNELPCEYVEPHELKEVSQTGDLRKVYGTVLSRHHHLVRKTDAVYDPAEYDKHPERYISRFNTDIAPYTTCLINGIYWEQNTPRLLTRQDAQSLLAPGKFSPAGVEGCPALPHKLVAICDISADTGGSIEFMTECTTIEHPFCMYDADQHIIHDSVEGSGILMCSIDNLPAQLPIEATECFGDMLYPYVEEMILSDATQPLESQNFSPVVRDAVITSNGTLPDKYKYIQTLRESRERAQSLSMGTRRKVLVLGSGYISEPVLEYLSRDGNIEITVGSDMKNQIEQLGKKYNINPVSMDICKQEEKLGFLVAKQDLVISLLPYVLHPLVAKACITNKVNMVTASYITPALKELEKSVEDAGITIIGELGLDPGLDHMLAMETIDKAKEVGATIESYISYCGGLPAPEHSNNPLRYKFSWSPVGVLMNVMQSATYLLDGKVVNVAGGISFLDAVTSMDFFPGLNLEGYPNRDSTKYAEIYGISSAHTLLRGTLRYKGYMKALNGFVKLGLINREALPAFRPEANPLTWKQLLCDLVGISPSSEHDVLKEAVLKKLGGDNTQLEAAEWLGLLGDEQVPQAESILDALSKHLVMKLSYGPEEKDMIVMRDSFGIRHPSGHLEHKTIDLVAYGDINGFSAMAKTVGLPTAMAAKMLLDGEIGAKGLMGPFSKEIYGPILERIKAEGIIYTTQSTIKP
Outline: as §1

RPS13 = RPS13 (UniProt P62277)
Outline: as §1

HNRNPA2B1 = HNRNPA2B1 (UniProt P22626)
Chain of HNRNPA2B1 (P22626 whole entry): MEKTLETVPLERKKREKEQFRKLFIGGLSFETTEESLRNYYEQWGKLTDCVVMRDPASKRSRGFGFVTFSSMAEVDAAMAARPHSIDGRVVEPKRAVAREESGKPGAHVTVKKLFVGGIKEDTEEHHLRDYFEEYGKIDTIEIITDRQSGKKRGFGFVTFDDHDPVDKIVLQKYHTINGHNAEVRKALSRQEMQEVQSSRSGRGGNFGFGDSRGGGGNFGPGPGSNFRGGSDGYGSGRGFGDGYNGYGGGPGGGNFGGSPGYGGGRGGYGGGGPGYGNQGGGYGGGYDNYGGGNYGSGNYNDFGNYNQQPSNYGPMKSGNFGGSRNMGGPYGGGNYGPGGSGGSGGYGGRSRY
Outline: as §1

HNRNPA1 = HNRNPA1 (UniProt P09651)
Chain of HNRNPA1 (P09651 whole entry): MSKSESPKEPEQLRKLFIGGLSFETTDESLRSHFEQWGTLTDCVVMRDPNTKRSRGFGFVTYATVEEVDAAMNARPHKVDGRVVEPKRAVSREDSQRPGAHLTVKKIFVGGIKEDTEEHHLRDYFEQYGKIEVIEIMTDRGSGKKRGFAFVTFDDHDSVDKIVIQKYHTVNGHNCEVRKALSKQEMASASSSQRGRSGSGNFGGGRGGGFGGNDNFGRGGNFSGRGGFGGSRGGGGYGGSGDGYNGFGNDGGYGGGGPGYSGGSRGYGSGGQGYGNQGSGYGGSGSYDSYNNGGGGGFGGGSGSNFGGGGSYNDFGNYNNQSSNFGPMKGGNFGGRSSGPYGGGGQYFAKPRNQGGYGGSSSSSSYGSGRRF
Outline: as §1

MRPS28 = MRPS28 (UniProt Q9Y2Q9)
Outline: as §1

ZFP36L1 = target: T3, ZFP36L1 (UniProt Q07352)
T3 sequence: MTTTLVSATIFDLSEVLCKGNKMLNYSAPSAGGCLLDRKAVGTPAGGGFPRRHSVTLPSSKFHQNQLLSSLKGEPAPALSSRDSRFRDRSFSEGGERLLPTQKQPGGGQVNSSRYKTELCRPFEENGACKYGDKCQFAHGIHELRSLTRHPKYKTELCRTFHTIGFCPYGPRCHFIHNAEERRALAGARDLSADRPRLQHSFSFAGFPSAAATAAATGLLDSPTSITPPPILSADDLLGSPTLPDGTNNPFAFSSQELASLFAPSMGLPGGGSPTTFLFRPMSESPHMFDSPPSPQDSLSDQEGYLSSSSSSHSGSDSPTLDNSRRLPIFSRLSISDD
Outline: as §1

Chain of P4HA1 (P13674 whole entry): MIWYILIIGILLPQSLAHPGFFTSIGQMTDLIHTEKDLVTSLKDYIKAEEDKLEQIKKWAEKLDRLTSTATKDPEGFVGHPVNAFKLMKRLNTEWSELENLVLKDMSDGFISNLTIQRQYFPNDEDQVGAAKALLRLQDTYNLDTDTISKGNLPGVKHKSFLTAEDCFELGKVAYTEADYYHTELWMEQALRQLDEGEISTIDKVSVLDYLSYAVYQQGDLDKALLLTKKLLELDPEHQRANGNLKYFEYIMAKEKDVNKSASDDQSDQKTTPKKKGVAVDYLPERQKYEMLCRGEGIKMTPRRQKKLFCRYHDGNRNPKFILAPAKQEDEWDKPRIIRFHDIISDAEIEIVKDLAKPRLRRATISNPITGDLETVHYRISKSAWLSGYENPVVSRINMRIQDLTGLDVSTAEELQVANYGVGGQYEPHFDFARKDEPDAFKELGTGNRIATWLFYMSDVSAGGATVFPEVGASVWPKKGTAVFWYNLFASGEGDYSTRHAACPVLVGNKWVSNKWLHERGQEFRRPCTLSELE

With AAUAAA the pEC50 (P4HA1) was 7.18, the pEC50 (MKRN2) was 5.45 and the pEC50 (AASS) was 5.01.
With CUGUCCU the pEC50 (RPS13) was 6.91.
UAUUUAU showed a pEC50 (HNRNPA2B1) of 5.14, a pEC50 (HNRNPA1) of 5.53 and a pEC50 (MRPS28) of 7.25. For the same sequence, the pEC50 (ZFP36L1) was 7.13.
